From patent US11312773B2, “Anti-PD-L1 antibody” (Fuso Pharmaceutical Industries, Ltd., priority 2016, dated 2022)

Columns and labels:
[1] = tested on: oral melanoma; experiment: Clinical trials in dogs with oral melanoma (Clinical Trials 1, 3, 4); type: in vivo, dog
Experimental: Briefly, tumor tissue samples fixed with formaldehyde and embedded in paraffin were sliced into 4 μm thick sections with a microtome, attached to and dried on silane-coated slide glass (Matsunami Glass) and deparaffinized with xylene/alcohol. While the resultant sections were soaked in citrate buffer [citric acid (Wako Pure Chemical) 0.37 g, trisodium citrate dihydrate (Kishida Chemical) 2.4 g, distilled water 1000 ml], antigen retrieval treatment was performed for 10 min with microwave, followed by staining using a Nichirei automatic immuno-staining device. As pretreatment, sample sections were soaked in 0.3% hydrogen peroxide-containing methanol solution at room temperature for 15 min and washed with PBS. Then, anti-bovine PD-L1 monoclonal antibody was added and reaction was conducted at room temperature for 30 min. After washing with PBS, histofine simple stain MAX-PO (Rat) (Nichirei Bioscience) was added and reaction was carried at room temperature for 30 min, followed by coloring with 3,3′-diaminobenzidine tetrahydrocholride and observation with a light microscope. Dogs with oral melanoma or undifferentiated sarcoma in which tumor cells were PD-L1 positive were used in the following inoculation test (clinical trial).
With respect to the rat-canine chimeric anti-PD-L1 antibody c4G12 to be inoculated into dogs in the clinical trial, the culture supernatant obtained by the procedures described in 2.8 above was purified by affinity chromatography using MabSelect SuRe LX (GE Healthcare) and then by hydroxyapatite chromatography using BioScale CHT20-I prepacked column (Bio-Rad) in order to remove contaminants and polymeric proteins. Aggregate-containing fractions were further purified by anion exchange chromatography using HiScreen Q-Sepharose HP prepacked column (GE Healthcare).
(1) Safety Test: The established rat-canine chimeric anti-PD-L1 antibody c4G12 was administered intravenously into a dog (beagle, spayed female, 13-year-old, about 10 kg in body weight) at 2 mg/kg, every 2 weeks, 3 times in total. […] (2) Clinical Trial 1: The established rat-canine chimeric anti-PD-L1 antibody c4G12 was administered intravenously into a PD-L1 positive dog with relapsed oral melanoma (FIG. 9A) (miniature dachshund, male, 11-year-old, about 7.5 kg in body weight) at 2 mg/kg or 5 mg/kg, every 2 weeks, 22 times in total.

[2] = tested on: canine CD80/PD-L1 binding; experiment: Canine CD80/PD-L1 binding inhibition ELISA (cCD80-Ig immobilized, cPD-L1-Ig); conditions: antibody 0, 2.5, 5 and 10 μg/ml
Experimental: Using the canine PD-1-Ig, PD-L1-Ig and CD80-Ig (described above), anti-PD-L1 antibody was tested for its ability to inhibit canine PD-1/PD-L1 binding and CD80/PD-L1 binding. Briefly, canine PD-1-Ig or CD80-Ig was immobilized on flat-bottom 96-well plates.

[3] = tested on: canine PBMCs; experiment: Canine immune cell activation: SEB-stimulated PBMCs, cytokine ELISA and EdU uptake; type: cell-based; conditions: SEB stimulation
[4] = molecular target: T1, canine PD-1/PD-L1 binding (Canis lupus familiaris, UniProt A0A8I3P7C4); experiment: Canine PD-1/PD-L1 binding inhibition ELISA (cPD-1-Ig immobilized, biotinylated cPD-L1-Ig); conditions: antibody 0, 2.5, 5 and 10 μg/ml
T1 construct: made in house; host or cells: Expi293F
T1 sequence (A0A8I3P7C4 19-237): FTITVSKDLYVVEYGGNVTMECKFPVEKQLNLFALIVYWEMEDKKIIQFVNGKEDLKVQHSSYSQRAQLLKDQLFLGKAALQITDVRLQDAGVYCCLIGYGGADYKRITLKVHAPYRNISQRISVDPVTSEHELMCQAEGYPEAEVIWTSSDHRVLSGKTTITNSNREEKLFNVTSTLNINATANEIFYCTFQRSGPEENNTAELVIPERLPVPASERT
Experimental: Briefly, canine PD-1-Ig (prepared in 2.4 above) was immobilized on flat bottomed 96-well plates and blocked with 1% BSA and 0.05% Tween 20-containing PBS. […] The binding of cPD-L1-Ig to cPD-1-Ig was measured by color reaction using Neutravidin-HRP (Thermo Fisher Scientific) and TMB one component substrate (Bethyl Laboratories).
Briefly, heavy chain and light chain variable region genes were identified from hybridomas producing rat anti-bovine PD-L1 monoclonal antibodies 4G12 and 6G7. Further, the heavy chain and light chain variable region genes of the above rat antibodies were linked to the constant region of heavy chain IgG4 and the constant region of light chain Lambda of a known canine antibody, respectively, to prepare nucleotide sequences, followed by codon optimization (SEQ ID NOS: 9 and 10 (amino acid sequences), SEQ ID NOS: 19 and 20 (nucleotide sequences after codon optimization). Then, synthesis of genes was performed so that NotI restriction enzyme recognition site. KOZAK sequence, chimeric antibody's light chain sequence, poly-A addition signal sequence (PABGH), promoter sequence (PCMV), SacI restriction enzyme recognition site, intron sequence (INRBG), KOZAK sequence, chimeric antibody's heavy chain sequence and XbaI restriction enzyme recognition site would be located in this order. […]

B1: c4G12: rat-canine chimeric anti-PD-L1 antibody, 4G12 variable regions, canine IgG-D/Lambda constant regions; light chain SEQ ID NO: 9, heavy chain SEQ ID NO: 10 (antibody)
heavy: MGWSQIILFLVAAATCVHSQVQLQQSGAELVKPGSSVKISCKASGYTFTSNFMHWVKQQPGNGLEWIGWIYPEYGNTKYNQKFDGKATLTADKSSSTAYMQLSSLTSEDSAVYFCASEEAVISLVYWGQGTLVTVSSASTTAPSVFPLAPSCGSTSGSTVALACLVSGYFPEPVTVSWNSGSLTSGVHTFPSVLQSSGLYSLSSTVTVPSSRWPSETFTCNVVHPASNTKVDKPVPKESTCKCISPCPVPESLGGPSVFIFPPKPKDILRITRTPEITCVVLDLGREDPEVQISWFVDGKEVHTAKTQPREQQFNSTYRVVSVLPIEHQDWLTGKEFKCRVNHIGLPSPIERTISKARGQAHQPSVYVLPPSPKELSSSDTVTLTCLIKDFFPPEIDVEWQSNGQPEPESKYHTTAPQLDEDGSYFLYSKLSVDKSRWQQGDTFTCAVMHEALQNHYTDLSLSHSPGK
light: MESQTHVLISLLLSVSGTYGDIAITQSPSSVAVSVGETVTLSCKSSQSLLYSENQKDYLGWYQQKPGQTPKPLIYWATNRHTGVPDRFTGSGSGTDFTLIISSVQAEDLADYYCGQYLVYPFTFGPGTKLELKQPKASPSVTLFPPSSEELGANKATLVCLISDFYPSGVTVAWKASGSPVTQGVETTKPSKQSNNKYAASSYLSLTPDKWKSHSSFSCLVTHEGSTVEKKVAPAECS
modifications: chimeric H chain; chimeric L chain
With B1 the “Criterion of PR (30% or more reduction in longest tumor diameter vs baseline)” value ([1]; Clinical Trial 1) was “satisfied at weeks 16-20 and at week 34 and thereafter”, the “Metastases to lymph nodes or the lung” value ([1]; Clinical Trial 1, observation period of 44 weeks) was “no metastases to lymph nodes or the lung were observed” and the “Pulmonary metastatic lesions at week 18” value ([1]; Clinical Trial 3, primary lesion removed by surgery, 2 or 5 mg/kg i.v. every 2 weeks, 9 times) was “a plurality of pulmonary metastatic lesions disappeared”. For the same molecule, the “Tumor size during observation period” value ([1]; Clinical Trial 4, 4 dogs with pulmonary metastasis, 2 or 5 mg/kg i.v. every 2 weeks) was “no clear reduction in tumor size”, the “Inhibitory activity against canine CD80/PD-L1 binding” value [2] was “reduced the amounts of binding” and the “IFN-γ production from canine PBMCs” value ([3]; 3 days, ELISA) was “increased”. The “IL-2 production from canine PBMCs” value ([3]; 3 days, ELISA) was “increased”, the “EdU uptake in canine CD4+ and CD8+ lymphocytes (cell proliferation)” value ([3]; EdU added at day 2, flow cytometry) was “enhanced” and the “Inhibitory activity against canine PD-1/PD-L1 binding” value [4] was “reduced the amounts of binding”.
